Measured values published in PMC4104756.

Molecular target: poly-(α,β)-DL-aspartic acid sodium salt
Assay: turbidity at 600 nm + light microscopy
Settings: scale: polyHis:polyAsp

- volume ratio polyHis:polyAsp at maximum turbidity: 0.82
Substance: poly-L-histidine (peptide)
